PMC10302205, “Saccharomyces cerevisiae Δ9-desaturase Ole1 forms a supercomplex with Slc1 and Dga1” (The Journal of Biological Chemistry, 2023)

B1: NubG-Dga1 (full-length NubG-Dga1 fusion) [S. cerevisiae] / Ole1-Myc-Cub-LexA-VP16 [S. cerevisiae] (parent complex)
chain 1: MSGTFNDIRRRKKEEGSPTAGITERHENKSLSSIDKREQTLKPQLESCCPLATPFERRLQTLAVAWHTSSFVLFSIFTLFAISTPALWVLAIPYMIYFFFDRSPATGEVVNRYSLRFRSLPIWKWYCDYFPISLIKTVNLKPTFTLSKNKRVNEKNYKIRLWPTKYSINLKSNSTIDYRNQECTGPTYLFGYHPHGIGALGAFGAFATEGCNYSKIFPGIPISLMTLVTQFHIPLYRDYLLALGISSVSRKNALRTLSKNQSICIVVGGARESLLSSTNGTQLILNKRKGFIKLAIQTGNINLVPVFAFGEVDCYNVLSTKKDSVLGKMQLWFKENFGFTIPIFYARGLFNYDFGLLPFRAPINVVVGRPIYVEKKITNPPDDVVNHFHDLYIAELKRLYYENREKYGVPDAELKIVG
chain 2: MPTSGTTIELIDDQFPKDDSASSGIVDEVDLTEANILATGLNKKAPRIVNGFGSLMGSKEMVSVEFDKKGNEKKSNLDRLLEKDNQEKEEAKTKIHISEQPWTLNNWHQHLNWLNMVLVCGMPMIGWYFALSGKVPLHLNVFLFSVFYYAVGGVSITAGYHRLWSHRSYSAHWPLRLFYAIFGCASVEGSAKWWGHSHRIHHRYTDTLRDPYDARRGLWYSHMGWMLLKPNPKYKARADITDMTDDWTIRFQHRHYILLMLLTAFVIPTLICGYFFNDYMGGLIYAGFIRVFVIQQATFCINSLAHYIGTQPFDDRRTPRDNWITAIVTFGEGYHNFHHEFPTDYRNAIKWYQYDPTKVIIYLTSLVGLAYDLKKFSQNAIEEALIQQEQKKINKKKAKINWGPVLTDLPMWDKQTFLAKSKENKGLVIISGIVHDVSGYISEHPGGETLIKTALGKDATKAFSGGVYRHSNAAQNVLADMRVAVIKESKNSAIRMASKRGEIYETGKFF

Variants of: B1
Assay: integrated membrane yeast two-hybrid assay (β-galactosidase reporter); n = 3 biological replicates; parent: 1; read off a plot

Variant	ratio to parent
chain 1 R404A, chain 1 E405A, chain 1 K406A	~0.84
chain 1 K397A, chain 1 R398A, chain 1 D411A, chain 1 E413A, chain 1 K415A	~0.2
